Reference: the supplement of paper PMC9732359
± gives the uncertainty stated by the source.

Test: protein stability index of a GFP-peptide fusion (yeast GPS) (PSI 1-4); higher = more stable; sorted into four equal gates, so the index is relative within each strain
How it was run: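 Each library plasmid carries Cherry plus GFP with a tiled 17-residue yeast protein peptide fused downstream, and the pooled library was carried in yeast. Mid-log cultures in leucine-free medium were sorted into four equal gates by GFP/Cherry ratio. Reads from Illumina sequencing of PCR-amplified plasmids from each gate were assigned to strains by barcodes. Per peptide, the protein stability index was computed as the summed products of gate read frequency and gate number.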

Sequence | protein stability index (doa10∆) | protein stability index (pdr5∆) | protein stability index (san1∆) | protein stability index (ubr1∆)
ISSGLLYLQDSNDKFVH [SRB8] | 1.94 ± 0.087 | 1.48 ± 0.13 | 1.25 ± 0.15 | 1.14 ± 0.07
AKNRILASKIKQYERLR [RRI1] | 2.48 ± 0.052 | 2.4 ± 0.049 | 2.37 ± 0.051 | 2.58 ± 0.036
NNCEDFVSRPDRTMLAP [FAS1] | 3.28 ± 0.25 | 2.98 ± 0.17 | 2.93 ± 0.26 | 3.2 ± 0.11
SFTSATERHIQVGDGLE [PRE7] | 2.79 ± 0.098 | 2.56 ± 0.075 | 3.35 ± 0.091 | 2.85 ± 0.049
MDWLDNWGRKEHDLLRQ [ITC1] | 3.22 ± 0.19 | 3.33 ± 0.26 | 3.48 ± 0.13 | 
LPYPTYWSDKKADTDTL [SNF5] | 2.91 ± 0.11 | 2.92 ± 0.11 | 3.1 ± 0.07 | 2.88 ± 0.059
PSEFHCLQDALDAIDDF [SSN2] | 3.14 ± 0.1 | 3.16 ± 0.067 | 3.12 ± 0.05 | 3.09 ± 0.097
FALPAGSPKSATSKTSE [CDC53] | 2.9 ± 0.17 | 2.92 ± 0.13 |  | 
SLNEDVEEIKLQKEKEL [SMC2] |  | 1.83 ± 0.25 |  | 
SFLKEGDLLNAEVQSLF [RRP4] | 2.57 ± 0.058 | 3.03 ± 0.091 | 3.04 ± 0.059 | 2.8 ± 0.067
VIFKIRDRTSGQKLLAI [SRB4] |  | 3.17 ± 0.2 | 3.5 ± 0.11 | 3.33 ± 0.16
ALAFGYVKSLHKQISAE [SIN4] | 1.65 ± 0.056 | 2.21 ± 0.064 | 1.78 ± 0.11 | 2.32 ± 0.043
DTAGEESQQQDESLKDE [SWI3] | 3.36 ± 0.2 |  | 3.13 ± 0.16 | 3.61 ± 0.29
MRELGLIQSTEFPSITS [YOR098C/NUP1] | 3.12 ± 0.1 | 3.29 ± 0.092 | 2.21 ± 0.12 | 3.17 ± 0.078
NELLKCKDDVQLQKILE [MTW1] | 2.97 ± 0.057 | 3.04 ± 0.051 | 3.05 ± 0.035 | 3.04 ± 0.037
TLEAKIGGLLSKVREEV [RPO31] | 3 ± 0.11 | 3.33 ± 0.11 | 3.6 ± 0.084 | 2.87 ± 0.084
VKLTYNSPSSALRALQE [YDL088C/ASM4] | 2.42 ± 0.058 | 2.44 ± 0.066 | 2.62 ± 0.088 | 2.03 ± 0.038
ERDSYKLLASTEENKAN [YIL149C/MLP2] | 2.76 ± 0.054 | 2.77 ± 0.047 | 2.84 ± 0.046 | 3.06 ± 0.034
FVIPALPAAVSKSLQES [RPC82] | 1.8 ± 0.1 | 1.69 ± 0.14 | 2.58 ± 0.085 | 2.04 ± 0.12
YEADQRKLFPNWIKPSD [PRP8] | 2.99 ± 0.092 | 2.86 ± 0.085 | 2.67 ± 0.11 | 2.96 ± 0.049
EMAEKIDFTLLNRLLRL [PRP8] | 2.72 ± 0.058 | 2.93 ± 0.058 | 2.57 ± 0.054 | 2.37 ± 0.049
FTTLLESKQDGLSILFL [YML103C/NUP188] | 2.53 ± 0.097 | 2.68 ± 0.12 | 2.56 ± 0.096 | 3 ± 0.14
GDVGKNHITEFPSIPLP [RPC31] | 3.21 ± 0.087 | 3.23 ± 0.087 | 3.31 ± 0.079 | 3.22 ± 0.093
KNSFQQALQMKAMDIPI [SWP82] | 1.29 ± 0.035 | 1.55 ± 0.055 | 1.37 ± 0.064 | 1.59 ± 0.038
FLTGQFASNKKINDESS [YML103C/NUP188] | 2.23 ± 0.05 | 2.23 ± 0.055 | 2.44 ± 0.067 | 2.4 ± 0.052
QKVQGESHIDSRNNTLN [SIR4] | 3.02 ± 0.057 | 3.1 ± 0.05 | 3.08 ± 0.057 | 3.01 ± 0.043
TIFGGVDKNGAHLYMLE [PRE10] | 2.88 ± 0.076 | 2.66 ± 0.071 | 2.87 ± 0.086 | 3.29 ± 0.075

Sequence | protein stability index (doa10∆) | protein stability index (pdr5∆) | protein stability index (san1∆) | protein stability index (ubr1∆)
RYPMNLLEFIIDEIAYL [ECM29] | 2.43 ± 0.097 | 2.89 ± 0.1 | 2.75 ± 0.091 | 2.89 ± 0.2
STTFADCPVVPADPDIL [RPC40] | 2.8 ± 0.071 | 2.87 ± 0.084 | 2.41 ± 0.11 | 2.43 ± 0.094
RKSKLNLDNLQKVSQLE [POP4] | 2.89 ± 0.2 |  |  | 
DIKVLKRQLIKERNQKF [YIL149C/MLP2] | 2.7 ± 0.084 | 2.62 ± 0.084 | 2.5 ± 0.091 | 2.41 ± 0.039
DSIDLAPNTLTNILISP [YML103C/NUP188] | 1.58 ± 0.11 | 1.87 ± 0.081 | 1.55 ± 0.15 | 1.56 ± 0.19
ISTRERDYLVDTLKLRE [RRP6] | 3.07 ± 0.076 | 2.72 ± 0.061 | 2.97 ± 0.065 | 3.17 ± 0.06
GNGELYMDCLLYDLRAS [SNU114] | 2.03 ± 0.058 | 2.12 ± 0.1 | 1.91 ± 0.13 | 2.29 ± 0.077
KIKQYERLRFYKDTFTL [RRI1] | 2.78 ± 0.056 | 2.54 ± 0.055 | 2.4 ± 0.049 | 2.81 ± 0.039
LETLEHNGAPHHAIEEA [RPO21] | 3.34 ± 0.12 | 3.01 ± 0.1 | 2.94 ± 0.09 | 2.95 ± 0.19
YLKHNSIAEEIPIAIVL [RET1] | 2.65 ± 0.052 | 2.18 ± 0.047 | 1.73 ± 0.085 | 2.16 ± 0.05
KLKQQSSTDIPSYTHVL [RRI1] | 2.29 ± 0.034 | 2.48 ± 0.04 | 2.52 ± 0.045 | 2.49 ± 0.035
NKYQIKKAVKELYEVDV [RPL25] | 3.03 ± 0.077 | 3.15 ± 0.078 | 3.12 ± 0.042 | 3.21 ± 0.06
KKALKVRTSATFRLPKT [RPL25] | 2.87 ± 0.13 |  |  | 3.18 ± 0.13
TLQTISFLGYLRYVKQI [ISW2] | 2.24 ± 0.044 | 1.71 ± 0.049 | 1.5 ± 0.094 | 1.96 ± 0.048
GSSASSRKAHGLNAKQL [POP1] | 3.21 ± 0.069 | 3.27 ± 0.084 | 3.13 ± 0.077 | 3.04 ± 0.066
KFLQEFINLLLNCCGSV [IRR1] | 2.07 ± 0.11 | 1.74 ± 0.091 | 1.57 ± 0.11 | 1.8 ± 0.062
LRAIEKNDDNSCRNPEH [YIL149C/MLP2] | 3.19 ± 0.16 | 3.25 ± 0.088 | 3.27 ± 0.13 | 3.15 ± 0.14
SSTDEESWFKALAGSEI [FAS1] | 3.32 ± 0.12 | 3.34 ± 0.14 | 3.11 ± 0.11 | 3.3 ± 0.081
IAQGIDLVRDIDIDKLI [SRP72] | 1.65 ± 0.14 | 1.23 ± 0.12 | 1.58 ± 0.21 | 1.1 ± 0.16
PLSTYNKNGNAVCSTAT [PGD1] | 2.37 ± 0.096 | 2.63 ± 0.075 | 2.37 ± 0.078 | 2.72 ± 0.088
IFWGIRLAKSTENEIPN [BRR2] | 1.42 ± 0.089 | 1.43 ± 0.055 | 1.18 ± 0.13 | 1.49 ± 0.064
TFFPRCIIAVSCTLLER [POP1] | 1.31 ± 0.024 | 1.36 ± 0.032 | 1.5 ± 0.051 | 1.63 ± 0.03
PDGTLIASAGKDGEIML [ASC1] | 3.06 ± 0.073 | 3.26 ± 0.091 | 3.29 ± 0.045 | 2.8 ± 0.045
LITPAVRNTAPNIRELG [YCG1] | 2.57 ± 0.18 | 2.76 ± 0.15 | 2.68 ± 0.28 | 3.09 ± 0.093
NNTTTTSTKPSFSFGAP [YOR098C/NUP1] | 3.26 ± 0.11 | 3.38 ± 0.1 | 3.04 ± 0.056 | 3.01 ± 0.076
MLRRHAAPPSTNFEILN [DIS3] | 1.87 ± 0.11 | 1.8 ± 0.1 | 1.71 ± 0.18 | 2.93 ± 0.074
LIPASDLSWSKQTDTGI [PRP8] | 2.32 ± 0.089 | 2.68 ± 0.063 | 2.79 ± 0.065 | 2.38 ± 0.044
